Measurements taken from patent publication US20200317802A1 (Merck KGaA, published 2020).

T1: recombinant human ADAMTS5 (R&D Systems cat #2198-AD) (human, UniProt Q9UNA0 262-622, limits assumed)
T1 sequence: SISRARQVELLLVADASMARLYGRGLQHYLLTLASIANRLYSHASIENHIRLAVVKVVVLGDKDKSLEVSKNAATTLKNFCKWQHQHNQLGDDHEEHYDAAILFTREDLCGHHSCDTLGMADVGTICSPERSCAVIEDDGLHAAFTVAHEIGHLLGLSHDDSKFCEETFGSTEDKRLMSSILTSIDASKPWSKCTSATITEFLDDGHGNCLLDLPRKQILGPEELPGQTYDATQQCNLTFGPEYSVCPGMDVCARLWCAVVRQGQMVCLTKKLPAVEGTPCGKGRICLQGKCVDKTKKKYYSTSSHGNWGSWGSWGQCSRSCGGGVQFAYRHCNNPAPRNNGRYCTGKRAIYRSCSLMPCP


Experiments:
[1] = target: T1, recombinant human ADAMTS5 (R&D Systems …); assay: cell-based or functional assay
[2] = target: T1, recombinant human ADAMTS5 (R&D Systems …); assay: cell-based or functional assay; remark: listed apart in the source
[3] = target: T1, recombinant human ADAMTS5 (R&D Systems …); assay: binding ELISA, periplasmic extract on coated human ADAMTS5
Description: In a first step, periplasmic extracts were tested for binding to recombinant human ADAMTS5 by binding ELISA. In brief, recombinant human ADAMTS5 (R&D Systems, Minneapolis, US; cat #2198-AD) at a concentration of 1 μg/ml was coated on 384-well MaxiSorp plates (Nunc, Wiesbaden, Germany). Wells were blocked with a casein solution (1%). After addition of a 10-fold dilution of the periplasmic extracts, Nanobody binding was detected using a mouse anti-Flag-HRP conjugate (Sigma, St. Louis, US) and a subsequent enzymatic reaction in the presence of the substrate esTMB (3,3′,5,5′-tetramentylbenzidine) (SDT, Brussels, Belgium). Clones showing ELISA signals higher than the sum of the average signal of the irrelevant Nanobody controls and 3 times the standard deviation of the irrelevant Nanobody controls were considered to encode positive human ADAMTS5 binding Nanobodies.

Row | Binder | FRET assay % inh, periplasmic extract [1] [%] | FRET assay vi (U/min), periplasmic extract [1] [U/min] | Human AlphaLISA % inhibition [2] [%] | Human AlphaLISA IC50 [2] [pM] | binding ELISA (OD 450 nm) [3] [OD 450 nm]
1 | Nanobody 2C10 (VHH, tagged as tested (anti-Flag detection, IMAC); also called 02C10) VHH: EVQLVESGGGLVQAGGSLRLSCATSGFTFSPYYMGWFRQAPGKERDFVAAITRSRGTTYYLDSTEGRFTISRDNAKNTMYLQMNSLNPEDTAVYYCAAGRSPGDPSRTYLYEYWGQGTLVTVSS | 90 | 2 | 100 | 450 | 1.63
2 | Nanobody 13E02 (VHH) VHH: EVQLVESGGGLVQAGGSLRLSCVASGSIFSIDAMGWYRQAPGKERELVASVTTGASPNYGDSVTGRFTASRDRAKNALYLQMNSLKPEDTAVYYCNLIMTIPGGSQIMYWGQGTLVTVSS | 99 | 0 | 100 | 2200 | –
3 | Nanobody 3F04 (VHH, tagged as tested (anti-Flag detection, IMAC); also called 03F04) VHH: EVQLVESGGGSVQAGGSLRLSCVASGRYPMAWFRQAPGKEREFVAGVSWGGDRTYYADSVQGRFTVSRDYAKNTLYLQMNSLKPEDAAVYYCAGDPWGRLFRVKDNYSDWGQGTLVTVSS | 8 | 19 | – | – | 2.56
4 | Nanobody 9D10 (VHH) VHH: EVQLVESGGGLVQAGGSLRLSCAASGRALSSSIMGWFRQAPGKEREFVAAITWSGGRAYYADVSDFEKGRFTISRDNGKNTVNLQMKGLKPEDTAVYYCAAALAIPVTMSPHEYPYWGQGTLVTVSS | 111 | -2 | 100 | 970 | –
5 | Nanobody 9D09 (VHH) VHH: EVQLVESGGGLVQAGGSLRLSCAASGLTFSSYTMGWFRQAPGQEREFVSAISWNTFTTYYVDSVKDRFTVSRDNAKNTLYLRMNSLKPEDTAVYYCAAAGGSPRQHEPYEYRVWGQGTLVTVSS | 102 | 0 | 100 | 2600 | –
6 | Nanobody 2A02 (VHH, tagged as tested (anti-Flag detection, IMAC); also called 02A02) VHH: EVQLVESGGGLVQPGGSLRLSCAASRRTFSSYVMAWFRQAPGKEREFVAAISRSGDSTYYYDSLEGRFTISRDNAKNTVHLQMNSLKPEDTAVYICAASRAPSFRTIDAINYYDYWGQGTLVTVSS | 91 | 2 | 99 | 4300 | 1.65
7 | Nanobody 9A05 (VHH) VHH: EVQLVESGGGFVQAGGSLRLSCAASRRTISSGTMGWFRQAPGKEREFVAAIRWSSGITFYPDSVEGRFTISGDNAKNTVSLQMNSLKPEDTAVYYCAADRSALRDPSFEVNYEYWGRGTLVTVSS | 113 | -3 | 100 | 320 | –
8 | Nanobody 2D12 (VHH, tagged as tested (anti-Flag detection, IMAC); also called 02D12) VHH: EVQLVESGGGLVQAGDSLRLSCAASGRTFSTYFVGWFRQAPGKERDFVAAISRNGARTYYYDSVAGLFTISRDNAKNTVYLQMSSLKPEDTAVYYCAAARISPSDPSNEDGYDYWGQGTLVTVSS | 90 | 2 | 100 | 690 | 1.35
9 | Nanobody 2G01 (VHH, tagged as tested (anti-Flag detection, IMAC); also called 02G01) VHH: EVQLVESGGGLVQAGGSLRLSCAASGRTTFSSYAMGWFRQAPGKERAFVATIWSGGLTVYADSAKGRFTISRDNAKNTVYLQMNSLRPEDTAVYYCAAEAVGTYYTPDGWTYWGQGTLVTVSS | 55 | 10 | – | – | 1.71
